Test [1] concerns the target T1, Yah1-GST fusion protein (S. cerevisiae, UniProt Q12184 17-172).
T1 chain: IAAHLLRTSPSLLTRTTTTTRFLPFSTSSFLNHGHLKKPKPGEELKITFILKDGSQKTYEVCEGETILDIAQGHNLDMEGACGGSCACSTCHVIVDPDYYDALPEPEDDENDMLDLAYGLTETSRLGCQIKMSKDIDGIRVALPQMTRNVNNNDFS
The experiment in a line: BLI; kd1 of 2:1 fit. A general note: Biolayer interferometry detects binding as a change in optical thickness at a sensor tip.

In test [2] the target is T1, Yah1-GST fusion protein. The test is described as follows: BLI; kd2 of 2:1 fit, second site.
Test [3] has as its target T1, Yah1-GST fusion protein. The experiment in a line: BLI; anaerobic, reduced Yah1; kd1 of 2:1 fit.
For test [4], the target named is T1, Yah1-GST fusion protein. The test is described as follows: BLI; KD1 of 2:1 heterogeneous ligand fit (46%).
For test [5], the target named is T1, Yah1-GST fusion protein. The experiment in a line: BLI; anaerobic, reduced Yah1; KD1 of 2:1 fit (61%).
For test [6], the target named is T1, Yah1-GST fusion protein. The experiment in a line: BLI; anaerobic, reduced Yah1 (Fig. 6C); kd1 of 2:1 fit.
Test [7] concerns the target T1, Yah1-GST fusion protein. The experiment in a line: BLI; anaerobic, reduced Yah1; kd2 of 2:1 fit, second site.
Test [8] deals with T1, Yah1-GST fusion protein. The test is described as follows: BLI; KD2 of 2:1 heterogeneous ligand fit (54%), second site.
Test [9] deals with T1, Yah1-GST fusion protein. The test is described as follows: BLI; anaerobic, reduced Yah1 (Fig. 6C); KD1 of 2:1 fit (40%).
For test [10], the target named is T1, Yah1-GST fusion protein. The test is described as follows: BLI; anaerobic, reduced Yah1; KD2 of 2:1 fit (39%), second site.
The target of test [11] is T1, Yah1-GST fusion protein. The experiment in a line: BLI; anaerobic, reduced Yah1 (Fig. 6C); kd2 of 2:1 fit, second site.
Test [12] deals with T1, Yah1-GST fusion protein. The experiment in a line: BLI; anaerobic, reduced Yah1 (Fig. 6C); KD2 of 2:1 fit (60%), second site.

This is an account of results in paper PMC8888459 (2022).

B1: NIA complex (Nfs1–Isd11–ACPEc) (complex)
chain 1: PAAGVKLDDNFSLETHTDIQAAAKAQASARASASGTTPDAVVASGSTAMSHAYQENTGFGTRPIYLDMQATTPTDPRVLDTMLKFYTGLYGNPHSNTHSYGWETNTAVENARAHVAKMINADPKEIIFTSGATESNNMVLKGVPRFYKKTKKHIITTRTEHKCVLEAARAMMKEGFEVTFLNVDDQGLIDLKELEDAIRPDTCLVSVMAVNNEIGVIQPIKEIGAICRKNKIYFHTDAAQAYGKIHIDVNEMNIDLLSISSHKIYGPKGIGAIYVRRRPRVRLEPLLSGGGQERGLRSGTLAPPLVAGFGEAARLMKKEFDNDQAHIKRLSDKLVKGLLSAEHTTLNGSPDHRYPGCVNVSFAYVEGESLLMALRDIALSSGSACTSASLEPSYVLHALGKDDALAHSSIRFGIGRFSTEEEVDYVVKAVSDRVKFLRELSPLWEMVQEGIDLNSIKWSGH
chain 2: MPGFTAPTRRQVLSLYKEFIKNANQFNNYNFREYFLSKTRTTFRKNMNQQDPKVLMNLFKEAKNDLGVLKRQSVISQMYTFDRLVVEPLQGRKH
chain 3: MSTIEERVKKIIGEQLGVKQEEVTNNASFVEDLGADSLDTVELVMALEEEFDTEIPDEEAEKITTVQAAIDYINGHQA
In general, koff refers to the first-order rate constant of dissociation. Read a low koff as a long-lived complex. The Kd is the constant that tells how readily two partners part at equilibrium. A low value points to higher affinity. With B1, the koff with Yah1-GST fusion protein [1] is 3.54e-07 s⁻¹; with Yah1-GST fusion protein [2], 0.0267 s⁻¹; with Yah1-GST fusion protein [3], 3.88e-07 s⁻¹; in the test with Yah1-GST fusion protein [6] it was 4.91e-07 s⁻¹; in the test with Yah1-GST fusion protein [7] it was 0.00204 s⁻¹; with Yah1-GST fusion protein [11], 0.00248 s⁻¹. Further, the dissociation constant (Kd) came to 0.0966 nM with Yah1-GST fusion protein [4]; 0.82 nM with Yah1-GST fusion protein [5]; 280 nM with Yah1-GST fusion protein [8]; 0.446 nM with Yah1-GST fusion protein [9]; 114 nM with Yah1-GST fusion protein [10]; 65.8 nM with Yah1-GST fusion protein [12].
